{
  "source": "paper PMC5615437",
  "about": "“A novel bifunctional acetyl xylan esterase/arabinofuranosidase from Penicillium chrysogenum P33 enhances enzymatic hydrolysis of lignocellulose” (Microbial Cell Factories, 2017)",
  "substrate": "CC(=O)Oc1ccc([N+](=O)[O-])cc1",
  "assay": "4-nitrophenol release, Lineweaver-Burk plot",
  "assay_type": "biochemical, Penicillium chrysogenum",
  "conditions": "pH 7, 40 °C, pNPA 0.2-2 mM",
  "data": [
    {"protein": "rPcAxe (Penicillium chrysogenum) (protein) AASSGCGKQPTLTNGVHTINGRQYILKVPDNYDSNKPHHLVFGLHWRGGNMNSVANGDSIQPWYGLESRAQGSAILVSPDGKNAGWANTNGEDVALIDAIIQQVEGDLCVDSSSRFATGFSWGGGMSYALACSRAKEFKAVSVLSGGLISGCEGGYDPIAYLGIHGIDDQVLPIDEGVTLANKFVGNNKCQPTNIGKPASGSGGFVRSDFQGCSKPVSFIAYDGGHVGAPLGVGSSLAPDATWEFFMAA", "values": [
      {"measurement": "Km", "value": 465, "unit": "µM"}
    ]}
  ]
}
